# Data as given in article PMC7391724 (Scientific Reports, 2020).
# Where two headings read alike, the source gives them in different places.
# Columns and labels:
# [1] = Plasma protein binding (ultrafiltration), dog; assay type: in vitro ADME; conditions: 37 °C
# Procedure: (§1) Plasma ultrafiltration was used for determination of free and protein bound fractions of EC2629 and EC2491. Samples were extracted and analyzed using fit-for-purpose bioanalytical methods. Briefly, 500 nM EC2629 or EC2491 was spiked into plasma maintained at 37 °C prior to plasma ultrafiltration. Plasma spiked with 500 nM EC2629 or EC2491 was allowed to equilibrate at 37 °C for 30 min prior to processing. Next, 50 μL of plasma was transferred to a clean 1.2 mL plate stored at 2–8 °C for further processing. The remaining plasma sample volumes were transferred to 30 Kd MWCO PES filter to generate plasma ultrafiltrate by centrifugation at 10,000×g for 20 min. After which, 50 μL of each plasma ultrafiltrate was transferred to separate wells in a clean 1.2 mL plate. To all spiked plasma samples, 50 μL of blank plasma ultrafiltrate was added. 50 μL of blank plasma was added to all experimental ultrafiltrate samples. These blank matrix additions normalized the matrix effects for protein binding determination. Samples were then extracted using protein precipitation with a 3:1 ratio of acetonitrile after addition of internal standard. The supernatant transferred to a new plate, evaporated, and reconstituted prior to LC–MS/MS analysis.
# [2] = Plasma protein binding (ultrafiltration), human; assay type: in vitro ADME; conditions: 37 °C
# Procedure: as §1
# [3] = Plasma stability, rat; assay type: in vitro ADME; conditions: 500 nM, 37 °C, 2 h
# Procedure: (§2) Whole blood and plasma stability were determined for EC2629 and EC2491 at a concentration of 500 nM. Samples were extracted and analyzed using fit-for-purpose bioanalytical methods. EC2629 or EC2491 was spiked into 1 mL whole blood or plasma maintained at 37 °C for 30 min prior to use . Fifty µl aliquots were then removed at defined timepoints and stored in a 1.2 mL extraction plate prior to analysis. Samples were then extracted using protein precipitation with a 3:1 ratio of acetonitrile after addition of internal standard. The supernatant was then transferred to a new plate, evaporated, and reconstituted prior to LC–MS/MS analysis.
# [4] = Plasma pharmacokinetics after intravenous EC2629 in rats; assay type: in vivo; conditions: rat
# Procedure: The plasma pharmacokinetics of EC2629 and metabolite EC2491 were evaluated following intravenous administration of EC2629 to male and female rats. The toxicokinetic phase of the study consisted of 5 groups with three animals/gender assigned to the control group, and nine animals/gender assigned to each of the treatment groups. […] Blood samples were collected from Group 0 at 10 min post-dose, and from Groups 1–4 at pre-dose, 2, 10, and 30 min and 1, 2, 8, 12, and 24 h post-dose. Plasma was prepared and analyzed for concentrations of EC2629 and metabolite EC2491. Mean plasma EC2629 and EC2491 concentration–time data for males and females, separately, of Groups 1–4 and were subjected to noncompartmental toxicokinetic evaluations and the results are summarized in Table S3.
# [5] = Whole blood stability, rat; assay type: in vitro ADME; conditions: 37 °C, after two hours, read-out: percent remaining in whole blood
# Procedure: as §2
# [6] = 0.1 mg/kg, 0.10 mg/kg iv, female, Group 2
# [7] = 0.1 mg/kg, 0.10 mg/kg iv, male, Group 2
# [8] = 0.5 mg/kg, 0.50 mg/kg iv, female, Group 4
# [9] = 0.5 mg/kg, 0.50 mg/kg iv, male, Group 4
smiles,measurement,setting,value
C=C1C[C@H]2C=Nc3cc(OCCCCCOc4cc(N)c(C(=O)N5CC(=C)C[C@H]5C5OCCN5C(=O)OCC(C)(C)SSCCC(=O)NCCNC(=O)CCOCCOCCOCCOCCNC(=O)CCN5C(=O)CC(SC[C@H](NC(=O)[C@H](CC(=O)O)NC(=O)[C@H](CC(=O)O)NC(=O)[C@H](CCCNC(=N)N)NC(=O)[C@H](CC(=O)O)NC(=O)CC[C@H](NC(=O)c6ccc(NCc7cnc8nc(N)[nH]c(=O)c8n7)cc6)C(=O)O)C(=O)O)C5=O)cc4OC)c(OC)cc3C(=O)N2C1 (stereo partly shown) [EC2629],"fraction unbound at 30 min, 500 nM",[1],0.055
same,"fraction unbound at 30 min, 500 nM",[2],0.128
same,plasma stability,[3],stable
same,clearance,"[4]; both sexes, across 0.05-0.50 mg/kg iv dose groups, males and females, read-out: Clearance (Cl), range",1.51 to 2.9 mL/min/kg
same,Vd,"[4]; both sexes, across 0.05-0.50 mg/kg iv dose groups, males and females, read-out: volume of distribution (Vz), range",0.109 to 0.191 L/kg
same,AUC(0-inf),"[4]; 0.05 mg/kg iv, female, Group 1",287 ng·h/mL
same,AUC(0-t),"[4]; 0.05 mg/kg iv, female, Group 1",260 ng·h/mL
same,C0,"[4]; 0.05 mg/kg iv, female, Group 1",662 ng/mL
same,Cmax,"[4]; 0.05 mg/kg iv, female, Group 1",545 ng/mL
same,Tmax,"[4]; 0.05 mg/kg iv, female, Group 1",1.98 min
same,half-life,"[4]; 0.05 mg/kg iv, female, Group 1",37.6 min
same,clearance,"[4]; 0.05 mg/kg iv, female, Group 1, read-out: Cl (converted)",2.9 mL/min/kg
same,Vd,"[4]; 0.05 mg/kg iv, female, Group 1, read-out: Vz",0.157 L/kg
same,AUC(0-inf),"[4]; 0.05 mg/kg iv, male, Group 1",384 ng·h/mL
same,AUC(0-t),"[4]; 0.05 mg/kg iv, male, Group 1",305 ng·h/mL
same,C0,"[4]; 0.05 mg/kg iv, male, Group 1",669 ng/mL
same,Cmax,"[4]; 0.05 mg/kg iv, male, Group 1",595 ng/mL
same,Tmax,"[4]; 0.05 mg/kg iv, male, Group 1",1.98 min
same,half-life,"[4]; 0.05 mg/kg iv, male, Group 1",61.2 min
same,clearance,"[4]; 0.05 mg/kg iv, male, Group 1, read-out: Cl (converted)",2.17 mL/min/kg
same,Vd,"[4]; 0.05 mg/kg iv, male, Group 1, read-out: Vz",0.191 L/kg
same,AUC(0-inf),[4]; [6],633 ng·h/mL
same,AUC(0-t),[4]; [6],596 ng·h/mL
same,C0,[4]; [6],1570 ng/mL
same,Cmax,[4]; [6],1330 ng/mL
same,Tmax,[4]; [6],1.98 min
same,half-life,[4]; [6],31.5 min
same,clearance,"[4]; 0.1 mg/kg, 0.10 mg/kg iv, female, Group 2, read-out: Cl (converted)",2.63 mL/min/kg
same,Vd,"[4]; 0.1 mg/kg, 0.10 mg/kg iv, female, Group 2, read-out: Vz",0.12 L/kg
same,AUC(0-inf),[4]; [7],699 ng·h/mL
same,AUC(0-t),[4]; [7],617 ng·h/mL
same,C0,[4]; [7],1690 ng/mL
same,Cmax,[4]; [7],1390 ng/mL
same,Tmax,[4]; [7],1.98 min
same,half-life,[4]; [7],42.4 min
same,clearance,"[4]; 0.1 mg/kg, 0.10 mg/kg iv, male, Group 2, read-out: Cl (converted)",2.38 mL/min/kg
same,Vd,"[4]; 0.1 mg/kg, 0.10 mg/kg iv, male, Group 2, read-out: Vz",0.146 L/kg
same,AUC(0-inf),"[4]; 0.25 mg/kg iv, female, Group 3",1750 ng·h/mL
same,AUC(0-t),"[4]; 0.25 mg/kg iv, female, Group 3",1640 ng·h/mL
same,C0,"[4]; 0.25 mg/kg iv, female, Group 3",3740 ng/mL
same,Cmax,"[4]; 0.25 mg/kg iv, female, Group 3",3230 ng/mL
same,Tmax,"[4]; 0.25 mg/kg iv, female, Group 3",1.98 min
same,half-life,"[4]; 0.25 mg/kg iv, female, Group 3",31.8 min
same,clearance,"[4]; 0.25 mg/kg iv, female, Group 3, read-out: Cl (converted)",2.38 mL/min/kg
same,Vd,"[4]; 0.25 mg/kg iv, female, Group 3, read-out: Vz",0.109 L/kg
same,AUC(0-inf),"[4]; 0.25 mg/kg iv, male, Group 3",1930 ng·h/mL
same,AUC(0-t),"[4]; 0.25 mg/kg iv, male, Group 3",1670 ng·h/mL
same,C0,"[4]; 0.25 mg/kg iv, male, Group 3",4310 ng/mL
same,Cmax,"[4]; 0.25 mg/kg iv, male, Group 3",3580 ng/mL
same,Tmax,"[4]; 0.25 mg/kg iv, male, Group 3",1.98 min
same,half-life,"[4]; 0.25 mg/kg iv, male, Group 3",46.2 min
same,clearance,"[4]; 0.25 mg/kg iv, male, Group 3, read-out: Cl (converted)",2.15 mL/min/kg
same,Vd,"[4]; 0.25 mg/kg iv, male, Group 3, read-out: Vz",0.144 L/kg
same,AUC(0-inf),[4]; [8],3540 ng·h/mL
same,AUC(0-t),[4]; [8],3230 ng·h/mL
same,C0,[4]; [8],7060 ng/mL
same,Cmax,[4]; [8],6070 ng/mL
same,Tmax,[4]; [8],1.98 min
same,half-life,[4]; [8],36.7 min
same,clearance,"[4]; 0.5 mg/kg, 0.50 mg/kg iv, female, Group 4, read-out: Cl (converted)",2.35 mL/min/kg
same,Vd,"[4]; 0.5 mg/kg, 0.50 mg/kg iv, female, Group 4, read-out: Vz",0.125 L/kg
same,AUC(0-inf),[4]; [9],5510 ng·h/mL
same,AUC(0-t),[4]; [9],5450 ng·h/mL
same,C0,[4]; [9],8450 ng/mL
same,Cmax,[4]; [9],7080 ng/mL
same,Tmax,[4]; [9],1.98 min
same,half-life,[4]; [9],84 min
same,clearance,"[4]; 0.5 mg/kg, 0.50 mg/kg iv, male, Group 4, read-out: Cl (converted)",1.51 mL/min/kg
same,Vd,"[4]; 0.5 mg/kg, 0.50 mg/kg iv, male, Group 4, read-out: Vz",0.183 L/kg
same,"remaining at 2 h, 500 nM",[5],75.1%
